Tests used:
[1] = target: Fc-tagged wild-type RBD (SARS-CoV-2, UniProt P0DTC2); assay: BLI
[2] = target: His-tagged RBD protein of SARS-CoV-2 (SARS-CoV-2, wild type (Wuhan-Hu-1 …, UniProt P0DTC2)); assay: BLI

B1: CoV2–06 (antibody, V domains shown)
VH: QVELQESGPGLVKPSGTLSLTCAVSGGSISSNNWWTWVRQPPGKGLEWIGEIHHSGGTNYNPSLKSRVTMSVDKSKNQFSLNLYSVTAADTAVYYCTRDRAGGTYSGFDFWGQGTLVTVSS
VL: QAVVTQPASVSGSPGQSITISCTGTSSDVGGYNYVSWYQQHPGKAPKLMIYDVSNRPSGVSNRFSGSKSGNTASLTISGLQAEDEADYYCSSYTSSSTVVFGGGTKVTVL
IC50 [1]: 39.8 nM
fold change of the avidity KD, RBD loaded at 1000 ng/ml against 40 ng/ml [2]: 46 fold

B2: CoV2–14 (antibody, V domains shown)
VH: EVQLQQSGPGLVKPSQTLSLTCAISGDSVSSNSAAWNWIRQSPSRGLEWLGRTYYRSKWYNDYAVSVKSRITINPDTSKNQFSLQLNSVTPEDTAVYYCAREEQQLVHDYYYYGMDVWGQGTMVTVSS
VL: QAVVTQPASVSGSPGQSITISCTGTSSDIGAYNYISWYQQHPGKAPKLIIYEVSNRPSGISYRFSGSKSGNTASLTISGLQAEDEANYYCSSYAGSISFGGGTKVTVL
IC50 [1]: 10.6 nM
fold change of the avidity KD, RBD loaded at 1000 ng/ml against 40 ng/ml [2]: 2 fold
